Assay [1] deals with YFT1-C^S927A/S1118A (cYFP fusion) (tomato (Solanum lycopersicum)). Nature of the assay: split reporter (BiFC, NanoBiT); BiFC: nYFP-SlTFT1 with YFT1-C derivatives fused to cYFP, transiently co-transformed into N. benthamiana leaves via Agrobacterium; YFP by confocal microscopy, intensity by ImageJ.
For assay [2], the target named is YFT1-C^S927D/S1118D (cYFP fusion) (tomato (Solanum lycopersicum)). The description is as above.

Results on one substance are retold here after publication PMC12576456.

Regarding nYFP-SlTFT1 (natural protein), the BiFC YFP fluorescence, percent of YFT1-C in assay [1] worked out at 67%; in assay [2] it was 114%.
